Values of other authors in publication PMC3338619, “Ligand Binding Study of Human PEBP1/RKIP: Interaction with Nucleotides and Raf-1 Peptides Evidenced by NMR and Mass Spectrometry” (PLoS ONE, 2012).
pKd: −log10 of the molar value.

Biological target: Raf-1 tri-phosphorylated peptide (Homo sapiens) (UniProt P04049)

pKd: 4.70
Substance: rPEBP1 (from UniProt P31044)
